For data set [1], the target named is T1, taxol-stabilized microtubules (α-/β-tubulin) (bovine, UniProt P81947 1-451; Q6B856 1-445).
T1 construct: α-tubulin, named α-1B tubulin in the cross-linking analysis; β-tubulin, named β-2B tubulin in the cross-linking analysis; Polymer of α/β-tubulin dimers; Bought tubulin is likely a mixture of isotypes; In the polymerization assay (functional rows) the same tubulin was used unpolymerized; also called MTs; α-1B and β-2B tubulin; source: bought: Cytoskeleton, Inc; polymerized according to …
Put plainly: co-sedimentation; Kd determination: 0-10 μM taxol-stabilized microtubules (tubulin dimer), 1 μM BSA, 1 μM protein of interest; 25 mM Hepes pH 7.5, 150 mM NaCl, 1 mM MgCl2, 1 mM EGTA, 2 mM DTE; 10 min room temperature; 350,000 g, 25 °C; gel densitometry, quadratic fit; apparent Kd. The note with it: both partners purified.

Data set [2] concerns the molecule itself. Put plainly: AUC + cross-linking; sedimentation velocity, 42,000 r.p.m., 20 °C, 20 mM Hepes pH 7.5, 300 mM NaCl, 10% glycerol, 2 mM DTE; cross-linking conditions not told (Supplementary Fig. 3).

Residue numbers refer to the chain shown, from its start. Numbers in names are those of the source.

T1 sequence (P81947 whole entry, chain 1 of 2): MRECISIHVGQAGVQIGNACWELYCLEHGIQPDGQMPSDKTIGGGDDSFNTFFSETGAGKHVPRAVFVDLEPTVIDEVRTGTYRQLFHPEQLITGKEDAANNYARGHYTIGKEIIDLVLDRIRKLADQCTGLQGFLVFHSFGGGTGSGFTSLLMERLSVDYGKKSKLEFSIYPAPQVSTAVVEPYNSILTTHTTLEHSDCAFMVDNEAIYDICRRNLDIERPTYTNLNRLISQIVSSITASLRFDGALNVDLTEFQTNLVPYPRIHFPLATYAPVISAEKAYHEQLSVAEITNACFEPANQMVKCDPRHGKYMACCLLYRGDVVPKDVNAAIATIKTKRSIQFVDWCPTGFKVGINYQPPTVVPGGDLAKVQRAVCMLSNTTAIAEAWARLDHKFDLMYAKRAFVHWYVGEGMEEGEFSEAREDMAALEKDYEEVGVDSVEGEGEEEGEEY
T1 sequence (Q6B856 whole entry, chain 2 of 2): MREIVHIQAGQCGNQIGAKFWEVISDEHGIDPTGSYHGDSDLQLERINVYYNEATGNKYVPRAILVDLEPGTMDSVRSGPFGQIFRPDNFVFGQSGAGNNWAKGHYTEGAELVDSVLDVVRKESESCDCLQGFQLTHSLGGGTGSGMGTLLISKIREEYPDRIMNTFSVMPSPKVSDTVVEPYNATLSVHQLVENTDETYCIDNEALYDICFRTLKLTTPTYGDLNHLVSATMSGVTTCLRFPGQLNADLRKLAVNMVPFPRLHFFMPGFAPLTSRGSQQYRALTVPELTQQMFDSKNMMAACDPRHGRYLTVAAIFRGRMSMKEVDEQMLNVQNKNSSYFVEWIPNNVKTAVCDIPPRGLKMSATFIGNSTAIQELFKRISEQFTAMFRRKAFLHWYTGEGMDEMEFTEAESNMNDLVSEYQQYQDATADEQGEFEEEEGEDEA

B1: SKAP^135–225 2A mutant (K161A, K164A) (domain or fragment, human, UniProt Q9Y448 135-225, looked up)
chain: VTKITKLRRENGQMKATDTATRRNVRAGYAPLSKQKSEEELKDKNQLLEAVNKQLHQKLTETQGELKDLTQKVELLEKFRDNCLAILESKG
notes: Small kinetochore-associated protein (SKAP); source: E. coli OverExpress C41 (DE3), purified (GSTrap FF, HiTrap Q FF, Superdex 200)
Take B1: in data set [1], the “fold reduction of microtubule-binding affinity against wild type” value is ~4 fold.

B2: SKAP^135–225 4A mutant (K140A, K149A, K161A, K164A) (domain or fragment, human, UniProt Q9Y448 135-225, looked up)
chain: B1 chain with K6A, K15A
notes: as for B1
As for B2, the “fold reduction of microtubule-binding affinity against wild type” value in data set [1] was ~31 fold.

B3: SKAP^135–225 (domain or fragment, human, UniProt Q9Y448 135-225, looked up)
chain: B1 chain with A27K, A30K
notes: Small kinetochore-associated protein (SKAP); Behaved as a trimer in AUC and cross-linking; also called WT; source: E. coli OverExpress C41 (DE3), purified (GSTrap FF, HiTrap Q FF, Superdex 200)
Regarding B3, the “stoichiometry N” value in data set [2] came to 3. In addition, the Kd in data set [1] is ~0.58 µM.

B4: SKAP^159–225 (domain or fragment, human, UniProt Q9Y448 159-225, looked up)
chain: VRKGYKPLSKQKSEEELKDKNQLLEAVNKQLHQKLTETQGELKDLTQKVELLEKFRDNCLAILESKG
notes: Small kinetochore-associated protein (SKAP); source: E. coli OverExpress C41 (DE3), purified (GSTrap FF, HiTrap Q FF, Superdex 200); not shown: GST, N-terminal, cleaved
For the molecule B4, in data set [1], the Kd is ~2.5 µM.

B5: SKAP^103–225 (domain or fragment, human, UniProt Q9Y448 103-225, looked up)
chain: TQTRATSKSLLPVRSKEVDVSKQLHSGGPENDVTKITKLRRENGQMKATDTATRRNVRKGYKPLSKQKSEEELKDKNQLLEAVNKQLHQKLTETQGELKDLTQKVELLEKFRDNCLAILESKG
notes: Small kinetochore-associated protein (SKAP)
Take B5: the binding result in data set [1] was “binds”.

B6: SKAP^159–316:Astrin^482–850 complex (complex, human)
chain 1: VRKGYKPLSKQKSEEELKDKNQLLEAVNKQLHQKLTETQGELKDLTQKVELLEKFRDNCLAILESKGLDPALGSETLASRQESTTDHMDSMLLLETLQEELKLFNETAKKQMEELQALKVKLEMKEERVRFLEQQTLCNNQVNDLTTALKEMEQLLEM
chain 2: NKLQHLKESHEMGQALQQARNVMQSWVLISKELISLLHLSLLHLEEDKTTVSQESRRAETLVCCCFDLLKKLRAKLQSLKAEREEARHREEMALRGKDAAEIVLEAFCAHASQRISQLEQDLASMREFRGLLKDAQTQLVGLHAKQEELVQQTVSLTSTLQQDWRSMQLDYTTWTALLSRSRQLTEKLTVKSQQALQERDVAIEEKQEVSRVLEQVSAQLEECKGQTEQLELENSRLATDLRAQLQILANMDSQLKELQSQHTHCAQDLAMKDELLCQLTQSNEEQAAQWQKEEMALKHMQAELQQQQAVLAKEVRDLKETLEFADQENQVAHLELGQVECQLKTTLEVLRERSLQCENLKDTVENLTA
notes: Small kinetochore-associated protein (SKAP); Stoichiometry of the complex was not determined (AUC thwarted by limited solubility); also called SKAP:Astrin complex; source: Tnao38 insect cells (baculovirus), co-expressed, purified (HisTrap FF, Superose 6)
In the case of B6, in data set [1], the Kd was ~1.6 µM.

B7: SKAP^159–316 (expressed alone in E. coli) (domain or fragment, human, UniProt Q9Y448 159-316, looked up)
chain: B6 chain 1
notes: as for B4
Regarding B7, the binding result in data set [1] was “binds”.

By stoichiometry N is commonly meant the number of molecules, sites or subunits per partner or assembly.

Source of the values: paper PMC4843017, “Molecular requirements for the inter-subunit interaction and kinetochore recruitment of SKAP and Astrin” (Nature Communications, 2016).
